Results published in patent US11912755B2, “Endostatin fragments and variants for use in treating fibrosis” (iBio, Inc., priority 2015, dated 2024).

What was measured:
[1] = Solubility of Ig Fc fusions to E3 in plant lysates; type: physicochemical; details: plant lysate, non-denaturing (normal) grind buffer
Description: For IgG Fc expression, clarified plant lysates were run on a Western blot (Genway chicken E3 antibody). Fusions included E3 (C67A) linked to either the N-terminus of the hinge+Fc domains of IgG2, IgG3, or IgG4, or to the C-terminus of the hinge +Fc domain of IgG1. […] The E3-IgG1 fusion expressed well. The non-reducing samples all appeared to form large structures, although perhaps not as large as the END-55 (iBioCFB03) BMW multimers (FIG. 24).
For IgA/M expression, clarified plant lysates were ground in either denaturing (total) or non-denaturing buffer (soluble) and run on a Western blot (Genway chicken E3 antibody). Fusions contained E3 (C67A) linked to the N-terminus of the hinge+Fc domains of IgA1, IgA2, or IgM. The IgA1 and IgA2 fusions were insoluble in normal grind buffer. The IgM fusion had very low expression. J-chain co-expression had no obvious effect.

[2] = test system: TGF-β-induced dermal fibrosis in mouse skin; experiment: In vivo TGF-β-induced dermal fibrosis in mouse skin; details: 10 μg/ml intradermal with TGF-β 10 ng/ml; one week
Description: In Vivo Mouse Experiments. CB57BL6/J male mice were purchased from The Jackson Laboratory (Bar Harbor, ME). Human rE (10 μg/ml) or Endostatin peptides (10 μg/ml) in combination with TGF-β (10 ng/ml), or TGF-β alone were injected intradermally on the back of mice in a total volume of 100 μl 1×PBS. Mice were injected in two different skin sites and sacrificed one week post-injection. Skin surrounding the injection site was harvested and fixed in 10% formalin prior to embedding in paraffin.
Measurement of Skin Dermal Thickness. Six μm sections of paraffin-embedded human and mouse skin tissues were stained with hematoxylin and eosin (H&E). In some experiments, sections were stained with Masson trichrome which identifies collagens. Images were taken on a Nikon Eclipse 800 microscope. The thickness of the dermis was measured in 6 random fields of each section using the image/J® software. Data are shown in arbitrary units.
E4, a peptide representing the carboxy terminus of human endostatin, can attenuate fibrosis triggered by multiple fibrogenic factors. The anti-fibrotic effects of E4 can be detected whether administered concomitantly with or following the fibrogenic trigger. The efficacy of E4 was confirmed in […] pre-clinical models of fibrosis: a) bleomycin-induced dermal fibrosis in vivo in mouse skin, b) TGF-β induced dermal fibrosis in mouse skin, and c) bleomycin-induced pulmonary fibrosis. E4 peptide or a control peptide (E1; representing the amino terminal region of endostatin) were administered at the same time as TGF-β or bleomycin or 3-4 days following TGF-β or bleomycin. Mice were sacrificed one and two weeks after TGF-β-initiation of dermal fibrosis, and two and three weeks after bleomycin-induced pulmonary fibrosis. Two different modes of administration of the E4 peptide were also tested. It was confirmed that intraperitoneal and intratracheal administration was effective. The amount of E4 that was administered was 10 μg/ml in a total volume of 100 μl for skin and IP injections and 50 μl for IT administration.
For these studies, fibrosis was assessed by measurement of dermal thickness on H&E skin sections (skin), assessment of collagen levels by Masson Trichrome staining (skin and lung), and measurement of collagen levels by Sircol assay (lung). Furthermore, to confirm the mechanism by which E4 exerts its anti-fibrotic effects, the production of extra-cellular matrix (ECM) components, the levels of enzymes that promote matrix stabilization and thus accumulation and levels of those that degrade ECM components, and levels of transcription factors downstream of the pro-fibrotic triggers were evaluated. Results were assessed using the unpaired t test and the 3-way ANOVA (for the ID1 data).

[3] = test system: human primary lung fibroblasts; experiment: Western blot of FN, Col1α1 and α-SMA in primary lung fibroblasts; type: cell-based; details: normal human lung fibroblasts; TGF-β 24 h, then 5 μg/ml for 48 h
Description: Primary Fibroblast Culture. Human primary lung and skin fibroblasts were cultured. The explanted lungs of normal organ donors, patients with SSc or IPF, and clinically involved skin of SSc patients, a morphea patient and healthy donors were used for primary fibroblast culture. Approximately 2-cm pieces of peripheral lung and skin were minced and fibroblasts were cultured in Dulbecco's modified Eagle's medium (DMEM; Mediatech, Herndon, Va.) supplemented with 10% FBS, penicillin, streptomycin, and anti-mycotic agent, as previously described (Feghali et al., Arthritis Rheum 1999; 42:1451-7). All the cells were used between passages 3-6.
Western Blot Analysis. Cellular lysates were obtained from cultured fibroblasts as previously described (Pilewski et al., Am J Pathol 2005; 166:399-407). Briefly, 2.0×10^5 primary fibroblasts were cultured in 35-mm wells in 0.5% FBS-containing medium supplemented with 10 ng/ml of human recombinant TGF-β or PBS as vehicle control for 24 h, […] In some experiments, endostatin peptides were used without TGF-β stimulation. Cellular lysates were analyzed by Western blot. Signals were detected following incubation with horseradish peroxidase-conjugated secondary antibody and chemiluminescence (Perkin Elmer Life Sciences, Inc., Boston, Mass.). The intensity of individual bands with expected molecular sizes was semi-quantitatively analyzed using the image/J® software available at on the Internet (/rsb.info.nih.gov/ij/index.html), and normalized to individual GAPDH intensity.

[4] = test system: bleomycin-induced pulmonary fibrosis; experiment: Bleomycin mouse model of pulmonary fibrosis, plant-made E3 variants oral or IV; type: in vivo; details: oral treatment
Description: Peptides were expressed in plants using the IBIOLAUNCH™ gene expression platform. C57BL/6 mice were given bleomycin intratracheally in conjunction with END-55 (also referred to herein as E3-Fc (C67A) and CFB03) intravenous (IV) administration, or followed by IV administration of END-55 eight days after bleomycin. The mice were sacrificed at day 12 and lung samples were taken for both hematoxylin and eosin (H&E) staining and hydroxyproline assay.
Pulmonary fibrosis was induced in mice using bleomycin. Animals were treated orally with E3 variants or phosphate buffered saline (PBS). Lung histology was examined, showing that orally delivered E3 variants (E3-6His-KDEL (SEQ ID NO:19) and Expanded E3-6His-KDEL(SEQ ID NO:19)) prevented bleomycin-induced pulmonary fibrosis.
For the experiments shown in FIGS. 21 and 22, pulmonary fibrosis was again induced in mice using bleomycin. […] Hydroxyproline content was measured in the lung.
To evaluate tissue fibrosis/collagen deposition, a hydroxyproline quantification assay was performed. […] Aliquots were transferred to 96-well plates, and absorbance was measured at 570 nm. Collagen content was calculated by comparison with a standard curve generated with cis-4 hydroxy-L-proline (Sigma-Aldrich), using the conversion factor of 1 μg hydroxyproline corresponding to 6.94 μg. […]

IgG1_Fc-E3_C67A: SEQ ID NO: 29, C-terminal fusion of E3 C67A to IgG1 Fc
solubility [1]: soluble

E2: synthetic peptide, amino acids 71-115 of SEQ ID NO: 2 (IVNLKDELLFPSWEALFSGSEGPLKPGARIFSFNGKDVLTHPTWP; listed as Homo sapiens)
TGF-β-induced dermal fibrosis (dermal thickness) [2]: significantly reduced

E1: synthetic peptide, amino acids 1-45 of SEQ ID NO: 2 (human endostatin) (HSHRDFQPVLHLVALNSPLSGGMRGIRGADFQCFQQARAVGLAGT; listed as Homo sapiens)
TGF-β-induced dermal fibrosis (dermal thickness) [2]: did not alter
FN and Col1α1 levels [3]: no effect

B1: E3_C67A-Fc_IgA1: SEQ ID NO: 25 (protein)
chain: MGKMASLFATFLVVLVSLSLASESSASYCETWRTEAPSATGQASSLLGGRLLGQSAASCHHAYIVLAIENSFMTVPCPVPSTPPTPSPSTPPTPSPSCCHPRLSLHRPALEDLLLGSEANLTCTLTGLRDASGVTFTWTPSSGKSAVQGPPERDLCGCYSVSSVLPGCAEPWNHGKTFTCTAAYPESKTPLTATLSKSGNTFRPEVHLLPPPSEELALNELVTLTCLARGFSPKDVLVRWLQGSQELPREKYLTWASRQEPSQGTTTFAVTSILRVAAEDWKKGDTFSCMVGHEALPLAFTQKTIDRLAGKPTHVNVSVVMAEVDGTCY
modifications: E3_C67A-Fc_IgA1 fusion
solubility [1]: insoluble

B2: E3_C67A-Fc_IgG3: SEQ ID NO: 23 (protein)
chain: MGKMASLFATFLVVLVSLSLASESSASYCETWRTEAPSATGQASSLLGGRLLGQSAASCHHAYIVLAIENSFMTELKTPLGDTTHTCPRCPEPKSCDTPPPCPRCPEPKSCDTPPPCPRCPEPKSCDTPPPCPRCPAPELLGGPSVFLFPPKPKDTLMISRTPEVTCVVVDVSHEDPEVQFKWYVDGVEVHNAKTKPREEQYNSTFRVVSVLTVLHQDWLNGKEYKCKVSNKALPAPIEKTISKTKGQPREPQVYTLPPSREEMTKNQVSLTCLVKGFYPSDIAVEWESSGQPENNYNTTPPMLDSDGSFFLYSKLTVDKSRWQQGNIFSCSVMHEALHNRFTQKSLSLSPGK
modifications: E3_C67A-Fc_IgG3 fusion
solubility [1]: soluble

B3: E3_C67A-Fc_IgA2: SEQ ID NO: 26 (protein)
chain: MGKMASLFATFLVVLVSLSLASESSASYCETWRTEAPSATGQASSLLGGRLLGQSAASCHHAYIVLAIENSFMTVPCPVPPPPPCCHPRLSLHRPALEDLLLGSEANLTCTLTGLRDASGATFTWTPSSGKSAVQGPPERDLCGCYSVSSVLPGCAQPWNHGETFTCTAAHPELKTPLTANITKSGNTFRPEVHLLPPPSEELALNELVTLTCLARGFSPKDVLVRWLQGSQELPREKYLTWASRQEPSQGTTTFAVTSILRVAAEDWKKGDTFSCMVGHEALPLAFTQKTIDRMAGKPTHVNVSVVMAEVDGTCY
modifications: E3_C67A-Fc_IgA2 fusion
solubility [1]: insoluble

B4: Expanded E3-6His-KDEL: SEQ ID NO:17; E3 extended by 17 amino acids from Collagen XVIII, S→Y, C67A, ASK, 6X His KDEL (protein)
chain: MGKMASLFATFLVVLVSLSLASESSAQKSVWHGSDPNGRRLTESYCETWRTEAPSATGQAYSLLGGRLLGQSAASCHHAYIVLAIENSFMTASKHHHHHHKDEL
modifications: amino acid sequence including a secretory sequence, a portion of collagen XVIII, a portion of human endostatin having a C67A mutation, and a peptide tag
notes: E3 extended by 17 amino acids from Collagen XVIII, S→Y, C67A, ASK, 6X His KDEL
bleomycin-induced pulmonary fibrosis, lung histology [4]: prevented

B5: E3-6His-KDEL: SEQ ID NO:15; secretory leader peptide, E3, tagged with 6X His and KDEL sequence; plant-made (protein)
chain: MGKMASLFATFLVVLVSLSLASESSASYCETWRTEAPSATGQASSLLGGRLLGQSAASCHHAYIVLCIENSFMTHHHHHHKDEL
modifications: amino acid sequence including a secretory sequence, a portion of human endostatin, and a peptide tag
notes: plant-made
bleomycin-induced pulmonary fibrosis, lung histology [4]: prevented
